Measurements: PMC9654457

Tests used:
Assay in all cases: two-hybrid; pairwise split-ubiquitin yeast two-hybrid of four baits (slToc159-1AGM, -1GM, -2AGM, -2GM) with isolated prey vectors in NMY51; qualitative PXG assay and quantitative β-galactosidase activity in 96-well plates, 60 min, mean of three experiments
[1] = molecular target: slToc159-2AGM bait protein (tomato (Solanum lycopersicum))
[2] = molecular target: slToc159-1AGM bait protein (tomato (Solanum lycopersicum))
[3] = molecular target: slToc159-1GM bait protein (tomato (Solanum lycopersicum))
[4] = molecular target: slToc159-2GM bait protein (tomato (Solanum lycopersicum))

Substance | increase in interaction strength (β-galactosidase activity) against slToc159-2GM [1] | decrease in interaction strength (β-galactosidase activity) against slToc159-1AGM [3] | also measured
3-oxoacyl-[acyl-carrier-protein] reductase (natural protein) | 61.7% | – | –
Cell division protein FtsZ (natural protein) | – | – | relative increase in interaction strength (β-galactosidase activity) against slToc159-1GM [2]: 66.1%
Chlorophyll a-b binding protein 7 (natural protein) | – | 65.4% | increase in interaction strength (β-galactosidase activity) against slToc159-2AGM [4]: 21.7%
Chlorophyll a-b binding protein 8 (natural protein) | – | 49.2% | –
Chlorophyll a-b binding protein (CAB11) (natural protein) | – | 20.7% | –
Chlorophyll a-b binding protein CP24 (natural protein) | – | – | decrease in affinity (β-galactosidase activity) against Toc159-2AGM [4]: 75.5%
Chlorophyll a/b binding protein Cab-3C (natural protein) | – | 38.4% | increase in interaction strength (β-galactosidase activity) against slToc159-2AGM [4]: 1360%
Glutamine synthetase (natural protein) | – | – | relative increase in interaction strength (β-galactosidase activity) against slToc159-1GM [2]: 28.8%
Heat shock cognate 70 kDa protein (natural protein) | 406% | – | –
Hop-interacting protein (THI026) (natural protein) | 152% | – | –
Photosystem I reaction center subunit II (natural protein) | – | 62% | increase in interaction strength (β-galactosidase activity) against slToc159-2AGM [4]: 57.8%
Photosystem I reaction center subunit III (natural protein) | – | 46.3% | decrease in affinity (β-galactosidase activity) against Toc159-2AGM [4]: 86%
Photosystem I reaction center subunit IV A (natural protein) | – | – | decrease in affinity (β-galactosidase activity) against Toc159-2AGM [4]: 53.7%
Photosystem I subunit O (natural protein) | – | 93.8% | decrease in affinity (β-galactosidase activity) against Toc159-2AGM [4]: 72.7%
Photosystem II 23 kDa protein (natural protein) | – | 88.7% | decrease in affinity (β-galactosidase activity) against Toc159-2AGM [4]: 89.2%
RuBisCO small subunit 1 (natural protein) | – | – | increase in interaction strength (β-galactosidase activity) against slToc159-2AGM [4]: 79.9%
RuBisCO small subunit 2A (natural protein) | – | 62.4% | increase in interaction strength (β-galactosidase activity) against slToc159-2AGM [4]: 615%
RuBisCO small subunit 3 (natural protein) | – | 24.5% | decrease in affinity (β-galactosidase activity) against Toc159-2AGM [4]: 37.1%
Serine hydroxymethyl transferase (natural protein) | 889% | – | –
Stearoyl-[acyl-carrier-protein] 9-desaturase (natural protein) | 81.1% | – | relative increase in interaction strength (β-galactosidase activity) against slToc159-1GM [2]: 866%
SufE-like protein 1 (natural protein) | 509% | – | –
photosystem II subunit S (natural protein) | – | 76.6% | –
thiamine biosynthesis protein (ThiC) (natural protein) | 81.6% | – | relative increase in interaction strength (β-galactosidase activity) against slToc159-1GM [2]: 476%
